Consider one molecule from patent publication US20200407442A1 (WUXI BIOLOGICS IRELAND, published 2020).

The target in this assay is T1, Variant 3: xPro1.FL-x3 (human; mouse).
T1 construct: Chimeric full-length LAG-3 on transfected 293F cells
T1 chain: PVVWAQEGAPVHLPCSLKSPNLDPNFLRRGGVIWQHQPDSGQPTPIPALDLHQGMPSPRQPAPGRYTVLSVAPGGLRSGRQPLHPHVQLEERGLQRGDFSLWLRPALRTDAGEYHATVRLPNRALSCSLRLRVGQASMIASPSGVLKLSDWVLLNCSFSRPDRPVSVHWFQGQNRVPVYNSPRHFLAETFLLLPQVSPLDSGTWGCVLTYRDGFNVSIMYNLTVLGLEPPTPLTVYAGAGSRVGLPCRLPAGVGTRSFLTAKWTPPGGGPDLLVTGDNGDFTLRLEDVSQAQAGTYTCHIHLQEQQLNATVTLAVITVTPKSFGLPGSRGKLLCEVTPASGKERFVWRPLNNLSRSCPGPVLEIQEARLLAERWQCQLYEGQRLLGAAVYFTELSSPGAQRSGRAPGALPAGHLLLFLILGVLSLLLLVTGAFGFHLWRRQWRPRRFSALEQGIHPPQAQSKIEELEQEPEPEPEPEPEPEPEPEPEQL
The experiment in a line: FACS, 1 ug/mL antibody, transfected 293F cells. (A flow cytometer gives signals particle by particle.)

B1: 1.53.3-uAb-IgG4k (antibody, V domains shown)
VH: QVQLQQWGAGLLKPSETLSLTCGVYGGSFSGYYWSWIRQPPGMGLEWIGEINHRGNTNYNPSLKSRVTISEDTSKNQFSLRLSSVTAADTAVYFCTRGEDYSDYDYYGDFWGQGTLVTVSS
VL: EIVLTQSPATLSLSQGERATLSCRASQSISSYLAWYQQKPGQAPRLLIYAASNRATGIPARFSGSGSGTDFTLTISSLEPEDFAIYYCQQRSNWPLTFGGGTKVEIK
notes: Fully human antibody from OMT rats; IgG4 kappa by its name
For the molecule B1, the MFI came out at 41.7 and the “PE+ %” value was determined as 2.03%.
